Data published in PMC9242855.

Target: CMGE (Cdc45–MCM–GINS–Pol ε) (S. cerevisiae) (UniProt P29469)
Assay: negative-stain electron microscopy (2D averages, ReconSil); full CMG assembly reaction on nucleosome-flanked ARS1 origin DNA; DDK-phosphorylated double hexamers incubated with CDK, Dpb11, GINS, Cdc45, Pol ε, Sld3–Sld7, Sld2 and 5 mM ATP, 30 min at 30 °C

CMGE (Cdc45–MCM–GINS–Pol ε) (from UniProt P29469 1-868; P24279 1-971; P30665 1-933; P29496 1-775; P53091 1-1017; P38132 1-845; Q08032 1-650; Q03406 1-294; Q12146 1-194; P21951 1-2222; P24482 1-689) (complex)
percent of CMG particles that are dimers (dCMGE, cis configuration): 11% | percent of CMG particles that are dimers (dCMGE, trans configuration): 70%
